T1: human Nectin-4 (human, UniProt Q96NY8 32-510)
T1 construct: whole, on cells; Cell-surface target of the FACS, endocytosis and proliferation assays (CHO-huNectin4 S8 cells, BT474 cells); the assay field says which cells; also called huNectin4; PVRL4
T1 sequence (looked up): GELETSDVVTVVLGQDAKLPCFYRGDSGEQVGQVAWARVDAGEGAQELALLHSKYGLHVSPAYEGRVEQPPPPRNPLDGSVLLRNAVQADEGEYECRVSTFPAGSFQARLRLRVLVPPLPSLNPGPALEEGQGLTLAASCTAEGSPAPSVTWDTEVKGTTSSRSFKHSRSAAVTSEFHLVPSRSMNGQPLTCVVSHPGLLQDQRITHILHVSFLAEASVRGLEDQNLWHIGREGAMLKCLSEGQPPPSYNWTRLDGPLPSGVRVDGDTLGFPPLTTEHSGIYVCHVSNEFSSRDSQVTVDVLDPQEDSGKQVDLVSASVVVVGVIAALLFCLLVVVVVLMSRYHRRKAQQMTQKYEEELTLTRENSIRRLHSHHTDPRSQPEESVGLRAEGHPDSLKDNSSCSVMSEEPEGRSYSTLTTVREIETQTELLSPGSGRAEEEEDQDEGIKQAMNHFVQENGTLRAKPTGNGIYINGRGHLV

B1: 42D20 hz02 (antibody, V domains shown)
VH: QVQLQESGPGLVKPSETLSLTCTVSGFSLIDYGVSWIRQPPGKGLEWIGVIWGDGKIYYNSVLKSRVTISVDTSKNQFSLKLSSVTAADTAVYYCARQGGLLFYAMDYWGQGTLVTVSS
VL: DIVMTQSPDSLAVSLGERATINCKSSQSLLYSYSQKNYLAWYQQKPGQSPKLLIYFASTRESGVPDRFSGSGSETDFTLTISSLQAEDLAVYFCQQHYNTPFTFGAGTKLELKR
notes: Humanized
B2: 42D20 hz63-E (antibody, V domains shown)
VH: B1 VH with D54G, V71K, T73N, N76S, F78V, R97K
VL: B1 VL with Y31N, S32T
modifications: vcMMAE conjugated to the TECP-reduced antibody; residues not stated; DAR 4.0±1
B3: 42D20 hz64-E (antibody, V domains shown)
VH: B1 VH with D54G, V71K, T73N, N76S, F78V, R97K
VL: B1 VL with Y31N, S32K, S49P, E74G, L89V, F93Y
modifications: vcMMAE conjugated to the TECP-reduced antibody; residues not stated; DAR 4.0±1
B4: 42D20 hz10-E (antibody, V domains shown)
VH: B1 VH with V71K, T73N, N76S, F78V, R97K
VL: B1 VL with Y31N, S49P, E74G, L89V, F93Y
modifications: vcMMAE conjugated to the TECP-reduced antibody; residues not stated; DAR 4.0±1
B5: 42D20 hz44-E (antibody, V domains shown)
VH: B1 VH with G55A, V71K, T73N, N76S, F78V, R97K
VL: B1 VL with Y31N, S32K, S49P, E74G, L89V, F93Y
modifications: vcMMAE conjugated to the TECP-reduced antibody; residues not stated; DAR 4.0±1
B6: 42D20 hz43-E (antibody, V domains shown)
VH: B1 VH with G55A, V71K, T73N, N76S, F78V, R97K
VL: B1 VL with Y31N, S32T
modifications: vcMMAE conjugated to the TECP-reduced antibody; residues not stated; DAR 4.0±1
B7: Enfortumab-E (antibody, human IgG1, kappa, V domains shown)
VH: EVQLVESGGGLVQPGGSLRLSCAASGFTFSSYNMNWVRQAPGKGLEWVSYISSSSSTIYYADSVKGRFTISRDNAKNSLSLQMNSLRDEDTAVYYCARAYYYGMDVWGQGTTVTVSS
VL: DIQMTQSPSSVSASVGDRVTITCRASQGISGWLAWYQQKPGKAPKFLIYAASTLQSGVPSRFSGSGSGTDFTLTISSLQPEDFATYYCQQANSFPPTFGGGTKVEIKR
modifications: vcMMAE conjugated to the TECP-reduced antibody; residues not stated; DAR 4.0±1
B8: 20M12 xiIgG-E (antibody, V domains shown)
VH: QVQLQQSGPELVKPGASVRISCKASGYTFTSYYIHWVKQRPGQGLEWIGWIYPGNANNKYNENFKGKATLTADKSSSTAYMQLSSLTSEDSAVYFCARSVYYFDYWGQGTTLTVSS
VL: SVVMTQTPKFLLVSAGDRVTITCKASQSVSNDVAWYQQKPGQSPKLLIYYASNRNTGVPDRFTGSGYGTDFTFNISTVQAEDLAVYFCQQDYSSPYTFGGGTKLEIKR
modifications: vcMMAE conjugated to the TECP-reduced antibody; residues not stated; DAR 4.0±1
B9: 20M12 hz01-E (antibody, human IgG1, kappa, V domains shown)
VH: QVQLVQSGAEVKKPGASVKVSCKASGYTFTSYYIHWVRQAPGQRLEWMGWIYPGNANNKYNENFKGRVTITRDTSASTAYMELSSLRSEDTAVYYCARSVYYFDYWGQGTLVTVSS
VL: EVVMTQSPATLSVSPGERATLSCKASQSVSNDVAWYQQKPGQAPRLLIYYASNRNTGIPARFSGSGSGTEFTLTISSLQSEDLAVYFCQQDYSSPYTFGGGTKVEIKR
modifications: vcMMAE conjugated to the TECP-reduced antibody; residues not stated; DAR 4.0±1
B10: 20M12 hz11-E (antibody, human IgG1, kappa, V domains shown)
VH: B9 VH with R72A, T74K
VL: B9 VL
modifications: vcMMAE conjugated to the TECP-reduced antibody; residues not stated; DAR 4.0±1
B11: mIgG 42D20-E (antibody, V domains shown)
VH: QVQLKESGPGLVAPSQSLSISCTVSGFSLIDYGVSWIRQPPGKGLEWLGVIWGDGKIYYNSVLKSRLSISKDNSKSQVFLKMNSLQTDDTAMYYCAKQGGLLFYAMDYWGQGTSVTVSS
VL: DIVMTQSPSSLAMSVGQRVTMNCKSSQSLLNSYSQKNYLAWYQQKPGQSPKLLIYFASTRESGVPDRFIGSGSETDFTLTISSVQAEDLADYFCQQHYNTPFTFGSGTKLEIK
B12: mIgG 5M21-E (antibody, V domains shown)
VH: B8 VH with S21T, S31T, A56V, N58T, N63K, S99G, V100L
VL: SIVMTQTPKFLLVSAGDRLTITCKASQSVSNDVAWYQQKPGQSPKLLIYYASNRYTGVPDRFTGSGYGTDFTFTISTVQAEDLAVYFCQQDYSSPYTFGGGTKLEIK
B13: 5M21 hz10-E (antibody, human IgG1, kappa, V domains shown)
VH: B9 VH with S31T, A56V, N58T, N63K, R72A, T74K, S99G, V100L
VL: DIQMTQSPSSLSASVGDRVTITCKASQSVSNDVAWYQQKPGKVPKLLIYYASNRYTGVPSRFSGSGSGTDFTLTISSLQPEDVATYYCQQDYSSPYTFGGGTKVEIKR
modifications: vcMMAE conjugated to the TECP-reduced antibody; residues not stated; DAR 4.0±1
B14: 5M21 hz11-E (antibody, human IgG1, kappa, V domains shown)
VH: B9 VH with S31T, A56V, N58T, N63K, R72A, T74K, S99G, V100L
VL: B13 VL with V83L, Y87F
modifications: vcMMAE conjugated to the TECP-reduced antibody; residues not stated; DAR 4.0±1

Changes are numbered by the printed parent chain. Values joined by “and” are separate entries in the source; they are usually repeats but may differ in a detail not shown here. Identical values can stand only once.

In the first test the target is T1, human Nectin-4. Description: FACS on BT474 cells. How it is done:
(§1) The solutions of different concentrations were added to 384-well plates, 10 µl per well.
(§2) BT474 cells (breast cancer cells) expressing Nectin-4 on the cell surface were collected by centrifugation at 100 g at room temperature for 5 minutes, and then the cells were washed with PBS containing 0.5% BSA once and were centrifuged at 100 g at room temperature for 5 minutes. […] After incubation at 4° C. for 1 hour, fluorescently labeled goat anti-human IgG secondary antibody was added. After continued incubation at 4° C. for 1 hour, mean fluorescence readings of the cell populations were analyzed by a flow cytometer.
The experiment results of the binding of engineered humanized molecules of the present disclosure to BT474 cells by FACS assay are shown in panels 3B and 3C in FIG. 3 and Tables 6 and 7.
What is called EC50 is the concentration at which the effect is half-maximal. A lower EC50 goes with an effect from little substance. The molecule B1 registered an EC50 of 112 ng/mL.

For a further test, the target named is T1, human Nectin-4. Kind of test: cell-based or functional assay.
B2: the “Endocytosis efficiency (%)” value was determined as 67.9%.

For the molecule B3, the “Endocytosis efficiency (%)” value amounted to 66.6%.

Regarding B4, the “Endocytosis efficiency (%)” value worked out at 74%.

B5: the “Endocytosis efficiency (%)” value was 71.1%.

Turning to B6, the “Endocytosis efficiency (%)” value came to 68.9%.

As for B7, the “Endocytosis efficiency (%)” value worked out at 58.9%.

Consider B8, for which the “Endocytosis efficiency (%)” value is 67%.

With B9, the “Endocytosis efficiency (%)” value was 56.6%.

Regarding B10, the “Endocytosis efficiency (%)” value amounted to 58.4%.

The target in another test is T1, human Nectin-4. Description: FACS on BT474 cells. This is another data set of the same source. The protocol:
as §1, §2
As for B2, the EC50 was 299 ng/mL.

Regarding B3, a half-maximal response (EC50) required 373 ng/mL.

B4 returned an EC50 of 307 ng/mL.

B5 registered an EC50 of 504 ng/mL.

The molecule B6 displayed an EC50 of 430 ng/mL.

In turn, B7 showed an EC50 of 230 ng/mL.

B8 showed an EC50 of 227 ng/mL.

On to B9, for which the EC50 came out at 420 ng/mL.

On to B10, for which the EC50 amounted to 232 ng/mL.

The target of the next test is T1, human Nectin-4. Kind of test: cell-based or functional assay. The source holds these as a separate data set.
On to B4, for which the “EC50 (ng/ml), inhibition of proliferation of BT474 cells” value (from here on “EC50 (ng/ml), inhibition”) was 2.61 ng/mL and the “Percentage of cell killing at the highest concentration” value (from here on “Percentage of cell killing”) worked out at 33.7%.

In the case of B7, the “EC50 (ng/ml), inhibition” value is 5.37 ng/mL and 3.95 ng/mL and 5.11 ng/mL and 5.3 ng/mL.

On to B11, for which the “EC50 (ng/ml), inhibition” value came to 4.64 ng/mL and the “Percentage of cell killing” value was 33.5%.

Consider B12, for which the “EC50 (ng/ml), inhibition” value turned out to be 3.21 ng/mL and the “Percentage of cell killing” value turned out to be 36%.

With B13, the “EC50 (ng/ml), inhibition” value was 21.1 ng/mL and the “Percentage of cell killing” value came to 29.4%.

Regarding B14, the “Percentage of cell killing” value was 38.5%.

For a further test, the target named is T1, human Nectin-4. Kind of test: cell-based or functional assay. This is another data set of the same source.
Consider B2, for which the “EC50 (ng/ml), inhibition” value turned out to be 2.42 ng/mL and the “Percentage of cell killing” value stood at 47%.

With B3, the “EC50 (ng/ml), inhibition” value is 4.58 ng/mL and the “Percentage of cell killing” value is 40.9%.

Consider B4, for which the “EC50 (ng/ml), inhibition” value was 9.41 ng/mL and the “Percentage of cell killing” value was determined as 40.8%.

As to B5, the “EC50 (ng/ml), inhibition” value came to 3.61 ng/mL and the “Percentage of cell killing” value came to 42.7%.

Regarding B6, the “EC50 (ng/ml), inhibition” value worked out at 6.31 ng/mL and the “Percentage of cell killing” value was 42.5%.

Turning to B7, the “EC50 (ng/ml), inhibition” value was 2.26 ng/mL and 3.86 ng/mL and 2.91 ng/mL and 3.17 ng/mL.

For B8, the “EC50 (ng/ml), inhibition” value amounted to 14.8 ng/mL and the “Percentage of cell killing” value was determined as 41.4%.

In the case of B9, the “EC50 (ng/ml), inhibition” value came out at 24.2 ng/mL and the “Percentage of cell killing” value was determined as 32.2%.

Consider B10, for which the “EC50 (ng/ml), inhibition” value was found to be 31.6 ng/mL and the “Percentage of cell killing” value turned out to be 38.3%.
